T1: β-catenin (immunoprecipitated), P35222
T1 chain: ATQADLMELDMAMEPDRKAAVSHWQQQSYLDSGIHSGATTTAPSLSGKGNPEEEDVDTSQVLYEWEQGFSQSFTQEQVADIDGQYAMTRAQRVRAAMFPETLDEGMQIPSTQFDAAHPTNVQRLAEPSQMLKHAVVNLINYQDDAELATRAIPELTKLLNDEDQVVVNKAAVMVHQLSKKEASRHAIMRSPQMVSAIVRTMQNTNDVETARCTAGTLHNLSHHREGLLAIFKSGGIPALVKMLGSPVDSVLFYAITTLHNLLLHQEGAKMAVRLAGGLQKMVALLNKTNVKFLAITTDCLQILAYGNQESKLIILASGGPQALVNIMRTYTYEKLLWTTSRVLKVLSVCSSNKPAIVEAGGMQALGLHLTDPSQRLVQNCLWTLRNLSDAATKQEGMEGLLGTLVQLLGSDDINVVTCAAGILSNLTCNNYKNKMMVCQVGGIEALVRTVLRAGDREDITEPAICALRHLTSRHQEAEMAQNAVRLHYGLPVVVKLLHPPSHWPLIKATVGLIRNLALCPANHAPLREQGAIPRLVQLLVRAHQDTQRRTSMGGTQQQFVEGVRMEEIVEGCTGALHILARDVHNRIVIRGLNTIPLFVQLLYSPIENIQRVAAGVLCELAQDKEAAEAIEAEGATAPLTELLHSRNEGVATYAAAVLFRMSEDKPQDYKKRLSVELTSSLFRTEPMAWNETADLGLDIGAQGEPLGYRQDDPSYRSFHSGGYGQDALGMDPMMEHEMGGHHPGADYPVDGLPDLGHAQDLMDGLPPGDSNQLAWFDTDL

T2: p120^CTN (immunoprecipitated), O60716
T2 chain: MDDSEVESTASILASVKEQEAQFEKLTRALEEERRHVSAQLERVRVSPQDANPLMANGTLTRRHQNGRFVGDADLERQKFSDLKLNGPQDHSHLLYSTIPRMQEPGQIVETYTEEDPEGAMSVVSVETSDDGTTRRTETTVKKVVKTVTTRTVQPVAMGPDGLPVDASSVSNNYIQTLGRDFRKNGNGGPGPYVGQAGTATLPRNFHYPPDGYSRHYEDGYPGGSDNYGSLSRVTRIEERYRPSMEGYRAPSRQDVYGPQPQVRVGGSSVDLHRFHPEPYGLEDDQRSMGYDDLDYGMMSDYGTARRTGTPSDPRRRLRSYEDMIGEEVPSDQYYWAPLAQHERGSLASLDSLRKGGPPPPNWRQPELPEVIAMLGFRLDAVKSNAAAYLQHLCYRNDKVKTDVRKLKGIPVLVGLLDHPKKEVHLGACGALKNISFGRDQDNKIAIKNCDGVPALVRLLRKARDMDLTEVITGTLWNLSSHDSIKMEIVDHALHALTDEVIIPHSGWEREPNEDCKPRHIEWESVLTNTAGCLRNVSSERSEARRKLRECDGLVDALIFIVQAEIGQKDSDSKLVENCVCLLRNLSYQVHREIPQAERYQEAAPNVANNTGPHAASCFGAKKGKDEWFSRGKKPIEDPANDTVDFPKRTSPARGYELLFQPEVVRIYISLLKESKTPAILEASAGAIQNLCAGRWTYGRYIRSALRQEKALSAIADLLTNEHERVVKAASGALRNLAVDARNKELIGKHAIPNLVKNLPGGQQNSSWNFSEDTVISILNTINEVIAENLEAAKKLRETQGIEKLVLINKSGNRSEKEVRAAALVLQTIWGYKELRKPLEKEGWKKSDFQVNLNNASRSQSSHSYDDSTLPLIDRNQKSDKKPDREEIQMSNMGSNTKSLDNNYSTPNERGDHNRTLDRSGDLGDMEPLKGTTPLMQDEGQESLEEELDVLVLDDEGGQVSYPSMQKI

T3: Cell permeable caspase inhibitor containing the sequence IETD, P08620
T3 chain: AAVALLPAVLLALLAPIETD

B1: Recombinant caspase-8 (protein)
chain: SESQTLDKVYQMKSKPRGYCLIINNHNFAKAREKVPKLHSIRDRNGTHLDAGALTTTFEELHFEIKPHDDCTVEQIYEILKIYQLMDHSNMDCFICCILSHGDKGIIYGTDGQEAPIYELTSQFTGLKCPSLAGKPKVFFIQACQGDNYQKGIPVETDSEEQPYLEMDLSSPQTRYIPDEADFLLGMATVNNCVSYRNPAEGTWYIQSLCQSLRERCPRGDDILTILTEVNYEVSNKDDKKNMGKQMPQPTFTLRKKLVFPSD
B2: Caspase-8 (endogenous, in melanocytes and melanoma cells) (protein)
chain: MDFSRNLYDIGEQLDSEDLASLKFLSLDYIPQRKQEPIKDALMLFQRLQEKRMLEESNLSFLKELLFRINRLDLLITYLNTRKEEMERELQTPGRAQISAYRVMLYQISEEVSRSELRSFKFLLQEEISKCKLDDDMNLLDIFIEMEKRVILGEGKLDILKRVCAQINKSLLKIINDYEEFSKERSSSLEGSPDEFSNGEELCGVMTISDSPREQDSESQTLDKVYQMKSKPRGYCLIINNHNFAKAREKVPKLHSIRDRNGTHLDAGALTTTFEELHFEIKPHDDCTVEQIYEILKIYQLMDHSNMDCFICCILSHGDKGIIYGTDGQEAPIYELTSQFTGLKCPSLAGKPKVFFIQACQGDNYQKGIPVETDSEEQPYLEMDLSSPQTRYIPDEADFLLGMATVNNCVSYRNPAEGTWYIQSLCQSLRERCPRGDDILTILTEVNYEVSNKDDKKNMGKQMPQPTFTLRKKLVFPSD

Legend:
[1] = molecular target: T1, β-catenin (immunoprecipitated), P35222
[2] = molecular target: T2, p120^CTN (immunoprecipitated), O60716
[3] = molecular target: T3, Cell permeable caspase inhibitor …

Row | Protein | In vitro cleavage of the immunoprecipitated protein [1] | In vitro cleavage of the immunoprecipitated protein [2] | Proteolytic processing of caspase-8 (immunoblot) [3]
1 | B1 | Cleavage of immunoprecipitated β-catenin and p120^CTN by recombinant caspase-8 in vitro also was not demonstrated | Cleavage of immunoprecipitated β-catenin and p120^CTN by recombinant caspase-8 in vitro also was not demonstrated | 
2 | B2 |  |  | Treatment of cells with a cell permeable inhibitor of caspase-8 prevented its proteolytic processing
